These results are taken from article PMC12636710.

In general, stoichiometry N refers to a count of units in the complex or per binding partner.

Some results are limits rather than exact numbers.

The target in assay [1] is human apolipoprotein E, apoE4 isoform (ε4 allele) (human) (UniProt P02649). As to the kind of experiment: co-IP.
Assay [2] addresses prion protein (PrP) (mouse (endogenous in brain of APOE-TR mice)) (UniProt P04925). As to the kind of experiment: velocity sedimentation in a sucrose gradient.

Chain of prion protein (PrP) (P04925 23-230): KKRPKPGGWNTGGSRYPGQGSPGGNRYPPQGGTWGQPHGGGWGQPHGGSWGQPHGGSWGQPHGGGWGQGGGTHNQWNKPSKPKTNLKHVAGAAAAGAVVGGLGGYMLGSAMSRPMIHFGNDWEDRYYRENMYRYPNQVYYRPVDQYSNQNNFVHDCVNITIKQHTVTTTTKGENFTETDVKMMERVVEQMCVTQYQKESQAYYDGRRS
Chain of human apolipoprotein E, apoE4 isoform (ε4 allele) (human) (P02649 19-317): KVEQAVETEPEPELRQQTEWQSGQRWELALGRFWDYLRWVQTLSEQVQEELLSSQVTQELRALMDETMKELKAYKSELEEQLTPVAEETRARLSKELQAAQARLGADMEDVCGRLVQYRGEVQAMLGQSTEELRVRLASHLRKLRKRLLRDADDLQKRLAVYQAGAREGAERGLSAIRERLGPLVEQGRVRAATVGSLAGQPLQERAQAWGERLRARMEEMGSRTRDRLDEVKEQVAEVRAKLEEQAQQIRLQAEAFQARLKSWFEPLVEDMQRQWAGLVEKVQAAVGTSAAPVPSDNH
Chain of prion protein (PrP), P04925 23-230 (natural protein; other documents disagree on this pair) (P04925 23-230): as the sequence (P04925 23-230) above

For the substance “prion protein (PrP) (from UniProt P04925 23-230) (natural protein)”, in assay [1], the fold PrP/apoE OD ratio in the immunoprecipitate against ε2/ε2 22L mice was determined as 2.8 fold and the fold PrP/apoE OD ratio in the immunoprecipitate against ε3/ε3 22L mice was 1.7 fold. In the case of “prion protein (PrP), P04925 23-230 (natural protein; other documents disagree on this pair)”, the stoichiometry N in assay [2] was over 10.
